Data reported in US8129349B2, “Treatment of disease by inducing cell apoptosis” (The Regents of the University of California, priority 2000, dated 2012).
Substitutions are numbered along the chain they refer to. No end group written: not given here.

T1: procaspase 1 (Homo sapiens, UniProt P29466)
T1 construct: purchased Alexis Biochemicals 201-056
T1 sequence (P29466 1-404): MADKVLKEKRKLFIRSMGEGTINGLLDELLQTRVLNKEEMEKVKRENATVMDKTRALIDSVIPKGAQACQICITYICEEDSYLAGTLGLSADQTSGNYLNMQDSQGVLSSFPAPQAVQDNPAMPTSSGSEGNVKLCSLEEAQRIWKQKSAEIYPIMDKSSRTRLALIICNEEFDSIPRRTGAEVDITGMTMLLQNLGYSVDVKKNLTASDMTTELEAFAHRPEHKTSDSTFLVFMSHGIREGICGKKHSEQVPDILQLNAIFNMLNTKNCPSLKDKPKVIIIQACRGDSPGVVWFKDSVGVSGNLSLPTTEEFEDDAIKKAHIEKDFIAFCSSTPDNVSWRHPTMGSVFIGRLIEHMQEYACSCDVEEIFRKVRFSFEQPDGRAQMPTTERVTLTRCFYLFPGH

B1: rC/EBPβ-Ala^105: modified rat C/EBPβ with mutation of Ser^105 to Ala (SEQ ID NO:14), nonphosphorylatable mutant (protein, listed as Rattus norvegicus)
chain: MHRLLAWDAACLPPPPAAFRPMEVANFYYEPDCLAYGAKAARAAPRAPAAEPAIGEHERAIDFSPYLEPLAPAAADFAAPAPAHHDFLSDLFADDYGAKPSKKPADYGYVSLGRAGAKAAPPACFPPPPPAALKAEPGFEPADCKRADDAPAMAAGFPFALRAYLGYQATPSGSSGSLSTSSSSSPPGTPSPADAKAAPAACFAGPPAAPAKAKAKKAVDKLSDEYKMRRERNNIAVRKSRDKAKMRNLETQHKVLELTAENERLQKKVEQLSRELSTLRNLFKQLPEPLLASAGHC
B2: rC/EBPβ-Asp^105: modified rat C/EBPβ with mutation of Ser^105 to aspartic acid (SEQ ID NO:15), phosphorylation mimic (protein, listed as Rattus norvegicus)
chain: B1 chain with A105D
B3: C/EBPβ-HA-Glu^217: purified recombinant HA (hemagglutinin) tagged C/EBPβ-Glu^217 peptide (protein)
chain: MHRLLAWDAACLPPPPAAFRPMEVANFYYEPDCLAYGAKAARAAPRAPAAEPAIGEHERAIDFSPYLEPLAPAADFAAPAPAHHDFLSDLFADDYGAKPSKKPADYGYVSLGRAGAKAAPPACFPPPPPAALKAEPGFEPADCKRADDAPAMAAGFPFALRAYLGYQATPSGSSGSLSTSSSSSPPGTPSPADAKAAPAACFAGPPAAPAKAKAKKEVDKLSDEYKMRRERNNIAVRKSRDKAKMRNLETQHKVLELTAENERLQKKVEQLSRELSTLRNLFKQLPEPLLASAGHC
modifications: left off: small tags and cut ends
notes: purified recombinant HA (hemagglutinin) tagged C/EBPβ-Glu^217 peptide

Experiments:
procaspase 8 = procaspase 8 (Homo sapiens, UniProt Q14790); assay: Co-immunoprecipitation of purified recombinant procaspase 8 with recombinant C/EBPβ peptides; assay type: binding; design: 21 amino acid linker (vector-derived) (N); purchased Alexis Biochemicals 201-041-C005; settings: peptides 200 μM, procaspase 8 0.12 μg, quantitated by densitometry
Protocol: (§1) FIG. 5 provides results showing the direct association of C/EBPβ-Glu^217 with procaspases 1 and 8. […] Enzyme activity was measured in the absence (control) or presence of C/EBPβ peptides (200 μM) for 2 h, using a procaspases 1 (1U) (not shown) and 8 (0.2 μg) activity assay. Values are presented as the mean±one half the range of duplicates. Panel C provides results for cells cultured on a collagen type I matrix and incubated with the indicated cell permeant, purified synthetic N-acetyl, C-aldehyde C/EBPβ tetra-peptides (10 μM) or with recombinant C/EBPβ-HA peptides as indicated, together with the Chariot reagent (Active Motif) for 4 h. Control cells were incubated without peptides (P<0.05 for all peptides containing Ala^217).
Purified recombinant C/EBPβ peptides, expressed as known in the art (See, Descombes et al., supra; and Buck et al. (1994), supra), and purified synthetic N-acetyl, C-aldehyde tetrapeptides (200 μM) (American Peptide Company) were assayed for their ability to inhibit the activity of purified human recombinant caspases 1 (catalogue # 201-056) and 8 (catalogue # 201-041-C005) (Alexis Biochemicals). The sequence of caspase 8 includes Ser217 through Asp479 cloned into an expression vector containing a 21 amino acid linker at the N-terminus. Thus, the prodomain (first 220 amino acids) is essentially missing. […] Caspase activity was determined by the release of the p-nitroaniline colorimetric (Alexis Biochemicals) substrate for caspase 1 (catalogue # 260-026) or 8 (catalogue # 260-045) within the linear part of the kinetic assay (Thornberry et al. (1997), supra; Stennicke and Salvesen, supra). […]
(§2) To delineate the role of C/EBPβ on the activation of procaspases 1 and 8, the self-activation of recombinant procaspases 1 and 8 was induced in vitro (Wilson et al., supra; Margolin et al., supra; and Earnshaw et al., supra), and the effect of purified recombinant C/EBPβ peptides, produced as described previously (Descombes et al., supra; and Buck et al., (1994), supra) on this process was determined. […]

procaspase 1 = molecular target: T1, procaspase 1; assay: Co-immunoprecipitation of purified recombinant procaspase 1 with recombinant C/EBPβ peptides; assay type: binding; settings: peptides 200 μM, procaspase 1 0.6 U, quantitated by densitometry
Protocol: as §1
Purified recombinant C/EBPβ peptides, expressed as known in the art (See, Descombes et al., supra; and Buck et al. (1994), supra), and purified synthetic N-acetyl, C-aldehyde tetrapeptides (200 μM) (American Peptide Company) were assayed for their ability to inhibit the activity of purified human recombinant caspases 1 (catalogue # 201-056) and 8 (catalogue # 201-041-C005) (Alexis Biochemicals). The sequence of caspase 8 includes Ser217 through Asp479 cloned into an expression vector containing a 21 amino acid linker at the N-terminus. Thus, the prodomain (first 220 amino acids) is essentially missing. The fragment is cleaved at Asp385 and the active caspases are essentially identical to those identified in apoptotic cells (Stennicke and Salvesen, Meth. Enzymol., 322:91-100 (1997)). Caspase activity was determined by the release of the p-nitroaniline colorimetric (Alexis Biochemicals) substrate for caspase 1 (catalogue # 260-026) or 8 (catalogue # 260-045) within the linear part of the kinetic assay (Thornberry et al. (1997), supra; Stennicke and Salvesen, supra). Caspase 1 and 8 activity in cells was performed with colorimetric kits (catalogues # 850-211-K and 850-221-K) as described by the manufacturer (Alexis) (See also, Thornberry et al. (1997), supra). The caspase 8 inhibitor IETD was from Calbiochem (Catalogue # 218773).
as §2, with “determined. Consistent with the in vivo results described above, C/EBPβ-HA-Glu^217 and C/EBPβ 216-253-HA-Glu^217, but not C/EBPβ-HA-Ala^217, peptides associated with procaspases 1 and 8 (See, FIG. 5, Panel A).” for “determined.”

hepatic stellate cells = assay: Apoptosis of activated stellate cells transfected with C/EBPβ constructs, annexin-V-PE binding; assay type: cell-based, mouse; settings: for Effect of expressed construct on apoptosis / survival of stellate cells: transfected cells on collagen type I matrix; for Rescue from induced apoptosis by expressed construct: apoptosis induced by dominant negative MEKK1, IκBα or RSK mutants or by lactacystin
From the text: FIG. 1 provides data showing that phosphorylation of C/EBPβ on Thr^217 is required for hepatic stellate cell survival. Panel A provides phosphopeptide maps of in vivo labeled endogenous C/EBPβ in day-4 quiescent and activated primary mouse stellate cells cultured from the time of isolation on EHS or collagen type I matrix, respectively. The arrow indicates the peptide containing Phospho-Thr^217 in activated cells. […] Panel B provides phosphopeptide maps of in vitro labeled C/EPBβ. Active p90RSK phosphorylated C/EPBβ, but not C/EBPβ-Ala^217 on Thr^217 in vitro (arrowheads). Panel C provides results for cells cultured on collagen type I transfected with MSV-C/EBPβ antisense (AS), MSV-C/EBPβ sense (S), or MSV-C/EBPβ-Ala^217 together with CMV-GFP (green fluorescent protein) and p90RSK (1 μg each), as indicated in the Figure. Four hours after transfection, annexin-V-PE binding to plasma membranes was determined. The values presented are the percentage of transfected cells (green) that were annexin-V-PE (+) (red) (P<0.05 for C/EBPβ AS, and C/EBPβ-Ala^217). Panel D provides results for cells transfected as in […] with vectors expressing dominant negative mutants for MEKK1, IκBα, or p90RSK, or treated with the proteasome inhibitor lactacystin (10 μM) (closed bars), and co-transfected with MSV-C/EBPβ-Glu^217 (1 μg each) (open bars) as indicated. Annexin-V-PE binding was determined as described for Panel A (P<0.05 for C/EBPβ-Glu^217). Panel E provides results for cells transfected as described for Panel C, with a dominant-negative p90RSK, treated with FAS (100 nM for 6 hours) or cultured in a serum-free medium for 6 hours (closed bars), and co-transfected with MSV-C/EBPβ-Glu^217 (1 μg each) (open bars), as indicated. Cell death was determined by nuclear staining with Hoechst 33342 (P<0.05 for C/EBPβ-Glu^217 in RSK mut and FAS-treated cells).
FIG. 4 provides results showing that C/EBPβ PThr^217 associates with procaspases 1 and 8, and inhibits their activation. Panel A provides schematic representations of C/EBPβ peptides. The activation (dotted bars), DNA binding (solid bars) and dimerization (hatched bars) domains are shown. […] Panel C provides results showing that C/EBPβ and procaspase 8 were detected in activated stellate cells isolated from C/EBPβ^+/+ mice by confocal microscopy using specific antibodies (Santa Cruz Biotechnology). Control C/EBPβ^−/− stellate cells were negative for C/EBPβ, positive for procaspase 8, and apoptotic. Panel D provides immunoblot results for MSV vectors expressing C/EBPβ-HA (hemagglutinin protein) peptides (0.3 μg) transfected into activated stellate cells. The expressed peptides were immunoprecipitated with anti-HA antibodies. C/EBPβ-PThr^217 was detected using a specific antibody, only in cells expressing wild-type C/EBPβ. […] RSK was associated with all C/EBPβ peptides. Neither C/EBPβ nor procaspases 1 and 8 were detected in C/EBPβ immunoprecipitates from cells expressing C/EBPβ AS. Reciprocal immunoprecipitations of procaspases and RSK confirmed these associations.
Adult male Sprague-Dawley rats and adult male C/EBPβ^+/+ and C/EBPβ^−/− (Screpanti et al., supra; and Buck et al., (1999), supra), C/EBPβ-Ala^217 and C/EBPβ-Asp^105 transgenic mice were used for the isolation of primary hepatic stellate cells (Houglum et al., supra). Primary hepatic stellate cells were isolated by collagenase/pronase perfusion and purified by a single step density Nycodenz gradient (Accurate Chemical & Scientific) as known in the art (See, Lee et al., (1995), supra). Cells were plated on type I collagen matrix (Becton Dickinson) or EHS matrix (Matrigel, Collaborative Biomedical Products). Cells were cultured with 10% fetal calf serum/10% fetal bovine serum and transfected with lipofectamine (GIBCO) for DNA vectors or with the Chariot reagent (Active Motif) for peptides (10 μM) as known in the art (See, Houglum et al., supra; and Morris et al., J. Biol. Chem., 274:24942-24946 (1999)). […]

Chain of procaspase 8 (Q14790 217-479): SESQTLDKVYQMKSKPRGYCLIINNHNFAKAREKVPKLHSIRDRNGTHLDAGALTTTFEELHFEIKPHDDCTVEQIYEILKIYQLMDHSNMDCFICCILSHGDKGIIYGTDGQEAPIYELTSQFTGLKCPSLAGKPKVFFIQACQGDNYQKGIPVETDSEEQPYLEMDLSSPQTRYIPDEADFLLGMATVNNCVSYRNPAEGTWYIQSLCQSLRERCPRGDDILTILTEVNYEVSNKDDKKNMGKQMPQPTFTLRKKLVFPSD

Molecule	Co-immunoprecipitation of procaspase 8, fold more than the Ala^217 peptides (procaspase 8) [fold]	Co-immunoprecipitation of procaspase 1, fold more than the Ala^217 peptides (procaspase 1)	Effect of expressed construct on apoptosis / survival of stellate cells (hepatic stellate cells)	Rescue from induced apoptosis by expressed construct (hepatic stellate cells)
C/EBPβ216-253-HA-Glu^217: purified recombinant HA tagged C/EBPβ 216-253 peptide with Glu^217 (KEVDKLSDEYKMRRERNNIAVRKSRDKAKMRNLETQHK; also: HA tag (place not given here))	~12	about 7 fold	–	–
C/EBPβ 216-253-Ala^217: C/EBPβ fragment 216-253 with Ala^217, lacking the activation and dimerization domains (KAVDKLSDEYKMRRERNNIAVRKSRDKAKMRNLETQHK; left off: small tags and cut ends)	–	–	induced apoptosis	–
C/EBPβ 216-253-Glu^217: C/EBPβ fragment 216-253 with Glu^217, lacking the activation and dimerization domains (KEVDKLSDEYKMRRERNNIAVRKSRDKAKMRNLETQHK; left off: small tags and cut ends)	12	7 fold	–	sufficient to rescue cells from apoptosis
B1	–	–	induced apoptosis	–
B2	–	–	–	rescued
B3	–	about 7 fold	–	–
